Broadly, the IC50 is the concentration that inhibits the measured activity by half. Low readings indicate greater potency, high ones weaker potency.

What all share (details): tags: R&D Systems
In data set [1] the target is T1, ADAMTS5 (UniProt Q9UNA0 Q9UNA0:262-622).
T1 sequence: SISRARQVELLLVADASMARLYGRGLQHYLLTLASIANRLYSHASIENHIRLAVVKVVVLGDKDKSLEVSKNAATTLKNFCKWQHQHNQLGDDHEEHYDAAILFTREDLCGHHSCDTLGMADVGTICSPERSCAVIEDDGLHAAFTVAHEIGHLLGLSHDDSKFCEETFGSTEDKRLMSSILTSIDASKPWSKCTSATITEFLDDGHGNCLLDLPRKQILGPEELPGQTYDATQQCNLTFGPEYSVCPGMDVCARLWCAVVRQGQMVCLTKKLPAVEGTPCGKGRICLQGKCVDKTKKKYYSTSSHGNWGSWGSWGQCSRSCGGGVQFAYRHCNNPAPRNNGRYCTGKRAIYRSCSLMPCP
Description: inhibition; method 2 ELISA, 0.2 nM enzyme; method 1 77.5%. How it is done:
(§1) The substrate cleavage efficiency of ADAMTS5 under these reaction conditions was 80-100%. The inhibition rate of the test substance was calculated using the following equation.
(§2) On the other hand, the aptamers having the sequences shown by the sequences of SEQ ID NOs: 11(34)-11(35) and SEQ ID NO: 15 were evaluated by the following method (evaluation method 2). The cleavage reaction of the substrate (aggrecan G1-IGD-G2) by ADAMTS5 was performed in the same manner as in Example 1 except the following points. The differences are that the final concentrations of ADAMTS5 and the substrate were respectively 0.2 nM and 400 nM (48 μg/mL), and that the enzyme reaction time was 30 min. […] The cleaved substrate was quantified by a sandwich ELISA method using two kinds of anti-aggrecan antibodies. […] Using this, the amount of cleaved substrate can be quantified. […] The inhibition rate of the test substance was calculated using the following equation.
(§3) The aptamers having the sequences shown in SEQ ID NOs: 28(l)-28(18) (SEQ ID NO: 28 lineage) and SEQ ID NOs: 29(1)-29(3) (SEQ ID NO: 29 lineage) were all produced by chemical synthesis. Whether these aptamers inhibit the enzyme activity of ADAMTS5 was evaluated by a method similar to that in Example 1 and Example 5. In the Table, “n.d.” means not determined. […] “n.d.” means not determined.
(In general: ELISA stands for enzyme-linked immunosorbent assay.)

Data set [2] deals with T1, ADAMTS5. The experiment in a line: inhibition; method 2 ELISA; method 1 92.9%. How it is done: The heat-treated reaction solution was electrophoresed by 7.5% SDS-PAGE and stained with SYPRO Orange (manufactured by Sigma-Aldrich). The staining was performed according to the manual of Sigma-Aldrich and detected using STORM840 manufactured by GE Healthcare. […] The amount of uncleaved substrate in each reaction solution was quantified from the band intensity and the standard curve. The substrate cleavage efficiency of ADAMTS5 under these reaction conditions was 80-100%. The inhibition rate of the test substance was calculated using the following equation.
On the other hand, the aptamers having the sequences shown by the sequences of SEQ ID NOs: 11(34)-11(35) and SEQ ID NO: 15 were evaluated by the following method (evaluation method 2). […] The cleaved substrate was quantified by a sandwich ELISA method using two kinds of anti-aggrecan antibodies. […] Using this, the amount of cleaved substrate can be quantified. […] The inhibition rate of the test substance was calculated using the following equation.
The aptamers having the sequences shown in SEQ ID NOs: 28(l)-28(18) (SEQ ID NO: 28 lineage) and SEQ ID NOs: 29(1)-29(3) (SEQ ID NO: 29 lineage) were all produced by chemical synthesis. Whether these aptamers inhibit the enzyme activity of ADAMTS5 was evaluated by a method similar to that in Example 1 and Example 5.

In data set [3] the target is T1, ADAMTS5. Description: inhibition; method 2 ELISA; 95.9% at 2 nM. How it is done: as §1, §2, §3
Data set [4] addresses T1, ADAMTS5. Description: inhibition; method 2 ELISA; 98.1% at 2 nM. How it is done:
as §1, §2, §3

For the molecule CGUAGGGGCCUCCACAGCGUAAGCUUGGACUUAAACCACG (ssRNA, as SEQ 28 plus 2'-OMe at U31) [28(3)], half-maximal inhibition with ADAMTS5 [1] (IC50) required 0.108 nM.

Take CGUAGGGGCCUCCACAGCAUUCGCUUGGACACAAACCACG (ssRNA, as SEQ 29 plus 2'-OMe at A31; 3' idT) [29(1)]: in the data set with ADAMTS5 [2], the IC50 is 0.17 nM.

On to CGUAGGGGCCUCCACAGCGUAAGCUUGGACUUAAACCACG (ssRNA, as SEQ 28 plus 2'-OMe at 20-22,31; 5' 40 kDa branched PEG; 3' idT) [28(18)], for which the IC50 with ADAMTS5 [3] stood at 0.029 nM.

Take CGUAGGGGCCUCCACAGCGUAAGCUUGGACUUAAACCACG (ssRNA, as SEQ 28 plus 2'-OMe at 20-22,31; 3' idT) [28(15)]: the half-inhibitory concentration (IC50) with ADAMTS5 [4] is 0.084 nM.

Values taken from patent US20210246451, “APTAMER FOR ADAMTS5 AND USE FOR APTAMER FOR ADAMTS5” (RIBOMIC INC., published 2021).
